Measurements taken from US20150118286A1 (ELIXIR INSTITUTE OF REGENERATIVE MEDICINE, published 2015).

Assays:
Mushroom tyrosinase [1] = target: T1, Mushroom tyrosinase (mushroom, UniProt C7FF04 1-392); assay: enzyme kinetics on mushroom tyrosinase, Lineweaver-Burk / nonlinear regression, differs from Table 4
T1 construct: Bought enzyme preparation; also called monophenol monooxygenase (EC 1.14.18.1)
Method: Tyrosinase inhibitory activity was determined in vitro using L-tyrosine or L-dopa as the substrate following a modified method from Piao, L. Z., Park, H. R., Park, Y. K., Lee, S. K., Park, J. H., and Park, M. K. (2002) Chem Pharm Bull (Tokyo) 50, 309-311. The concentration of enzyme, substrate and inhibitor was denoted as [E], [S] and [I], respectively. The experiment was conducted in a 96-well flat-bottomed plate. Each well contained 80 μl of 0.067 M potassium phosphate buffer (pH 6.8), 40 μl of 5 mg/ml L-tyrosine dissolved in 0.067 M potassium phosphate buffer (pH 6.8), 40 μl of the different concentrations of inhibitors dissolved in the same buffer, and 40 μl of 480 units/ml mushroom tyrosinase solution. The final volume of each well was 200 μl, containing 1 mg/ml [S], 96 units/ml [E] and varying concentrations of [I] ranging from 1 μM to 10 mM. For the negative control wells, the inhibitors were substituted with buffer solution and adjusted to the total volume of 200 μl. HQ served as a positive control to calibrate the assay as a wide range of IC₅₀ values has been previously reported (Neeley, E., Fritch, G., Fuller, A., Wolfe, J., Wright, J., and Flurkey, W. (2009) Int J Mol Sci 10, 3811-3823). The assay mixture was incubated at 37° C. The optical density of the reaction mixtures, which correlates with the amount of dopachrome produced, was measured at 475 nm using a Varioskan microplate reader (Thermo Electron Corporation, San Jose, Calif.) at different time periods. For assessment of the 2nd step of melanin synthesis, we used L-dopa as the substrate and freshly extracted human tyrosinase as previously described (Abu Ubeid, A., Zhao, L., Wang, Y., and Hantash, B. M. (2009) J Invest Dermatol 129, 2242-2249).
The kinetics and mode of inhibition for P16-18 (SEQ ID NO: 1, 2 and 3 respectively) and HQ was determined using a standard assay (Pomerantz, S. H. (1966) J Biol Chem 241, 161-168). As illustrated by Lineweaver-Burk plots shown in FIG. 3, the Vₘₐₓ was independent of […] for HQ and all 3 octapeptides, whereas the Kₘ was altered.

Mushroom tyrosinase [2] = target: T1, Mushroom tyrosinase; assay: cell-based or functional assay

T1 sequence (C7FF04 1-392): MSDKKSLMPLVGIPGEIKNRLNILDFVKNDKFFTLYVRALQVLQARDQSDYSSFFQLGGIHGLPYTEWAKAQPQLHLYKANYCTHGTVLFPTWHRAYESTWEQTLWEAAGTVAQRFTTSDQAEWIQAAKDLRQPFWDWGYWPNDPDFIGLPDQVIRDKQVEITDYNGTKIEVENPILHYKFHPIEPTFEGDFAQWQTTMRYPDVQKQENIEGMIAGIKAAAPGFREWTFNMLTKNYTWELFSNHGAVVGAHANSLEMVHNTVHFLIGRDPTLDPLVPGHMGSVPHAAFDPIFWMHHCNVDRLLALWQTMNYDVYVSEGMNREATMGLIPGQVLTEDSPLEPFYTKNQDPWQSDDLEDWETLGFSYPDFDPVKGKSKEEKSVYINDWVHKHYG

| Binder | Ki (Mushroom tyrosinase [1]) [µM] | IC50 [µM], mushroom tyrosinase inhibition (dopachrome OD 475 nm, L-tyrosine substrate) (Mushroom tyrosinase [2]) [µM] |
| --- | --- | --- |
| RRYWYWRR (Synthetic octapeptide) [P18 peptide] | 179 | 282 |
| RRRYWYYR (Synthetic octapeptide) [P17 peptide] | 190 | 398 |
| RRVAL [P13 peptide] | – | 2200 |
| RRFVLL [P14 peptide] | – | 1770 |
| RRWWRRYY (Synthetic octapeptide) [P16 peptide] | 167 | 238 |
